Reference: publication PMC10854676, “The Impact of Lens Epithelium-Derived Growth Factor p75 Dimerization on Its Tethering Function” (Cells, 2024)
Numbering of substitutions follows the chain as printed. In names and notes the source's numbering stands.

B1: MBP-LEDGF_(325–426) (domain or fragment, UniProt O75475 325-426, looked up)
chain: EQQNKDEGKKPEVKKVEKKRETSMDSRLQRIHAEIKNSLKIDNLDVNRCIEALDELASLQVTMQQAQKHTEMITTLKKIRRFKVSQVIMEKSTMLYNKFKNM
notes: source: E. coli BL21(DE3)pLysS, purified (amylose resin); not shown: MBP, N-terminal, kept
B2: His6-LEDGF_(1–426) (domain or fragment)
chain: not shown
notes: LEDGF/p75 residues 1-426 (lacks the C-term with the α6-helix); elsewhere LEDGF1-426 is Flag-tagged; source: E. coli BL21(DE3)pLysS, purified (Ni-NTA, heparin); not shown: His6, N-terminal, kept
B3: His6-LEDGF_(345–530) (domain or fragment, UniProt O75475 345-530, looked up)
chain: ETSMDSRLQRIHAEIKNSLKIDNLDVNRCIEALDELASLQVTMQQAQKHTEMITTLKKIRRFKVSQVIMEKSTMLYNKFKNMFLVGEGDSVITQVLNKSLAEQRQHEEANKTKDQGKKGPNKKLEKEQTGSKTLNGGSDAQDGNQPQHNGESNEDSKDNHEASTKKKPSSEERETEISLKDSTLDN
notes: the plasmid has a TEV site after the His tag, a cleavage is not reported; source: E. coli BL21(DE3)pLysS, purified (Ni-NTA, heparin); not shown: His6, N-terminal, kept
B4: His6-LEDGF_(345–530) N454A-K455A (domain or fragment, UniProt O75475 345-530, looked up)
chain: B3 chain with N110A, K111A
notes: source: E. coli BL21(DE3)pLysS, purified (Ni-NTA, heparin); not shown: His6, N-terminal, kept
B5: His6-LEDGF_(345–530) E451A (domain or fragment, UniProt O75475 345-530, looked up)
chain: B3 chain with E107A
notes: as for B4
B6: Flag-LEDGF/p75 E451R-E452R (natural protein)
chain: not shown
notes: LEDGF/p75 with two reverse-charge mutations in the α6-helix; source: E. coli BL21(DE3)pLysS, purified (heparin column, Superdex 75); not shown: Flag, N-terminal, kept
B7: His6-LEDGF/p52 (natural protein)
chain: not shown
notes: lacks the IBD and C-term; also called His6-tagged LEDGF/p52; source: E. coli BL21(DE3)pLysS, purified (Ni-NTA, heparin); not shown: His6, N-terminal, kept
B8: MLL1_(1–160)-GST (domain or fragment, UniProt Q03164 1-160, looked up)
chain: MAHSCRWRFPARPGTTGGGGGGGRRGLGGAPRQRVPALLLPPGPPVGGGGPGAPPSPPAVAAAAAAAGSSGAGVPGGAAAASAASSSSASSSSSSSSSASSGPALLRVGPGFDAALQVSAAIGTNLRRFRAVFGESGGGGGSGEDEQFLGFGSDEEVRVR
notes: MLL1 residues 1-160; also called MLL1_(1–160) fragment; not shown: GST, C-terminal, kept

Legend:
Settings in all cases: both partners purified
[1] = target: B3; assay: AlphaScreen or HTRF; direct titration or cross-titration of two differently tagged proteins at nanomolar concentrations (one partner fixed at 100-350 nM); no nuclease; protein batches held DNA at 2 µg/mL or lower
[2] = target: T1, Flag-LEDGF/p75 WT (UniProt O75475 1-530); assay: AlphaScreen or HTRF; competition: 150 nM GST-LEDGF/p75 and 150 nM Flag-LEDGF/p75 outcompeted by increasing concentrations of a third LEDGF construct; apparent IC50
T1 construct: LEDGF/p75, aa 1-530, from the pCp-NAT-3xFlag-LEDGF WT construct; also called Flag-tagged LEDGF/p75; Flag-LEDGF_(1–530); source: E. coli BL21(DE3)pLysS, purified (heparin column, Superdex 75); not shown: 3xFlag, N-terminal, kept

[3] = target: T2, Flag-LEDGF_(1–426) (UniProt O75475 1-426); assay: AlphaScreen or HTRF; direct titration or cross-titration of two differently tagged proteins at nanomolar concentrations (one partner fixed at 100-350 nM); no nuclease; protein batches held DNA at 2 µg/mL or lower
T2 construct: LEDGF/p75 residues 1-426, truncation missing the complete C-term including the α6-helix; source: E. coli BL21(DE3)pLysS, purified (heparin column, Superdex 75); not shown: Flag, N-terminal, kept

[4] = target: T1, Flag-LEDGF/p75 WT; assay: as above
[5] = target: T3, GST-LEDGF/p75 (UniProt O75475 1-530); assay: as above
T3 construct: LEDGF/p75 (lens epithelium-derived growth factor p75), aa 1-530, expressed from pGEX-p75; also called GST-tagged LEDGF/p75; full-length GST-tagged LEDGF/p75; source: E. coli BL21(DE3)pLysS, purified as described before [24]; not shown: GST, N-terminal, kept

[6] = target: B6; assay: as above

Question: Does B1 bind [1]?
Answer: binds

Question: How did the IC50 [2] turn out when B2 was run?
Answer: 65.5 nM

Question: B3 was tested. Which IC50 [2] did it give?
Answer: 222 nM

Question: And the “fold stronger binding than the mutants E451A and N454A-K455A” value [3]?
Answer: ~2 fold

Question: Which results are given for B4?
Answer: binding result [3]: binds; binding result [4]: binds

Question: Does B5 bind [3]?
Answer: binds

Question: Does B5 bind [4]?
Answer: binds

Question: Does B6 bind [5]?
Answer: binds

Question: With B7 as the binder, how does the IC50 [2] read?
Answer: 12.2 nM

Question: Does B8 bind [3]?
Answer: binds

Question: Does B8 bind [6]?
Answer: binds

Question: Does B8 bind [4]?
Answer: binds
